26 sequences from the supplement of paper PMC9732359 can be followed below.

± gives the uncertainty stated by the source.

The data set in a line: protein stability index of a GFP-peptide fusion (yeast GPS) (PSI 1-4); higher = more stable; sorted into four equal gates, so the index is relative within each strain. The gist of the method:
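The protein stability index of a peptide was calculated by multiplying its read frequency in each gate by that gate's number and adding the products. The peptides were tiled 17-residue stretches of yeast proteins, fused downstream of GFP on a Cherry-expressing plasmid and carried in yeast as a pooled library. Mid-log cultures in leucine-free medium were sorted into four equal gates by GFP/Cherry ratio, and each gate's plasmids were PCR-amplified and Illumina-sequenced.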

With TTLNEMFRYKTNLYKLK [PUP3], the protein stability index is, setting by setting: (doa10∆) 3.06 ± 0.14; (pdr5∆) 2.66 ± 0.11; (san1∆) 1.76 ± 0.13; (ubr1∆) 2.08 ± 0.1.
In the case of TTNMNVNNCIWALKSSL [RGR1], the protein stability index runs as follows: (doa10∆) 2.26 ± 0.068; (pdr5∆) 1.32 ± 0.065; (san1∆) 1.36 ± 0.21; (ubr1∆) 1.25 ± 0.046.
For TTRVGGGGAARRQAVDV [RPS5], in that order: 1.61 ± 0.26, 1.63 ± 0.12, 1.73 ± 0.28 and 1.82 ± 0.17.
On the same counts, the results for TTTKIIDSTDHIRKASS [LRP1] are 2.19 ± 0.048, 2.07 ± 0.039, 1.64 ± 0.066 and 2.32 ± 0.038.
Regarding TTTSNTSGTNIAGTFNV [YOR098C/NUP1], the protein stability index by setting is: (doa10∆) 3 ± 0.05; (pdr5∆) 2.54 ± 0.037; (san1∆) 2.5 ± 0.051; (ubr1∆) 2.24 ± 0.028.
With TTTTTTTNNNNTNNNNT [SWI1], the protein stability index is 3.18 ± 0.034 (doa10∆), 3.18 ± 0.05 (pdr5∆), 3.303 ± 0.021 (san1∆) and 3.465 ± 0.024 (ubr1∆).
For TVAHIQYDFKAVLEEND [RPN14], in that order: 1.95 ± 0.12, 2.72 ± 0.2, 2.26 ± 0.11 and 2.28 ± 0.24.
For TVALREIRRFQKSTELL [HHT1], in that order: 2.99 ± 0.098, 2.91 ± 0.087, 3.07 ± 0.068 and 3.02 ± 0.078.
On the same counts, the results for TVKLTEIVWTSSLIKAG [RPO31] are 1.48 ± 0.058, 1.69 ± 0.067, 1.24 ± 0.14 and 1.24 ± 0.063.
TVLVIDNSEYSRNGDFP [RPN10]: the protein stability index by setting is: (doa10∆) 2.44 ± 0.058; (pdr5∆) 2.73 ± 0.066; (san1∆) 1.48 ± 0.098; (ubr1∆) 2.44 ± 0.041.
On the same counts, the results for TVNEPQMSDKHATVVPP [SRB7] are 2.73 ± 0.12, 2.83 ± 0.11, 2.89 ± 0.093 and 3.07 ± 0.092.
For TVPNLPTTMVTNQKDTN [ISW2], in that order: 1.29 ± 0.046, 1.84 ± 0.053, 1.51 ± 0.1 and 1.75 ± 0.051.
Turning to TVQSWLCDLFVNGSITD [NUT1], the protein stability index was 1.46 ± 0.038 (doa10∆), 1.45 ± 0.048 (pdr5∆), 1.48 ± 0.086 (san1∆) and 1.23 ± 0.043 (ubr1∆).
On the same counts, the results for TVSPDFVAATTNAGYTI [FAS1] are 2.71 ± 0.065, 2.71 ± 0.053, 2.32 ± 0.12 and 2.56 ± 0.058.
On the same counts, the results for TVSPTQDKDAIRKQPDD [SIR2] are 2.99 ± 0.076, 3.11 ± 0.087, 2.99 ± 0.067 and 2.9 ± 0.096.
On the same counts, the results for TWENEFLDSQRVWAEYA [PRP8] are 2.14 ± 0.088, 2.27 ± 0.072, 2.13 ± 0.11 and 2.89 ± 0.11.
Regarding TWNGSPFDNSTEEKCKN [YJL039C/NUP192], the protein stability index is 3.1 ± 0.084 (doa10∆), 3.38 ± 0.081 (pdr5∆), 3.26 ± 0.066 (san1∆) and 3.33 ± 0.073 (ubr1∆).
For TWYVGNSRGKFDDACNQ [SSN2], in that order: 3.43 ± 0.19, 3.14 ± 0.12, 2.9 ± 0.11 and 3.26 ± 0.16.
On the same counts, the results for TYGFSILDIVINNPVNL [FAS1] are 2.07 ± 0.087, 2.37 ± 0.075, 2.53 ± 0.092 and 3.02 ± 0.074.
TYIKSEITQQEKGLNEL [SMC4]: the protein stability index is, setting by setting: (doa10∆) 1.88 ± 0.066; (pdr5∆) 1.7 ± 0.059; (san1∆) 2.75 ± 0.092; (ubr1∆) 1.55 ± 0.051.
For TYRSRAQQVPPYGVYHP [SIN4], in that order: 2.77 ± 0.1, 2.13 ± 0.085, 2.8 ± 0.063 and 2.71 ± 0.078.
On the same counts, the results for VAAAGITASTLLYADSL [CYT1] are 1.89 ± 0.068, 2.12 ± 0.078, 1.75 ± 0.14 and 1.93 ± 0.078.
On to VAAFVNNYPNVELTYSL [BRR2], for which the protein stability index is, setting by setting: (doa10∆) 2.61 ± 0.11; (pdr5∆) 2.82 ± 0.087; (san1∆) 2.74 ± 0.082; (ubr1∆) 2.9 ± 0.087.
For VAALKAVGAHSDLLKVL [RPL4A], in that order: 3.21 ± 0.093, 3.16 ± 0.11, 2.71 ± 0.1 and 2.83 ± 0.059.
For VAALRFTAGARAKIVKA [RPL18A], in that order: 1.31 ± 0.089, 1.4 ± 0.069, 1.24 ± 0.2 and 1.18 ± 0.1.
For VAASIIPFPDHNQSPRN [RPB2], in that order: 2.37 ± 0.09, 2.21 ± 0.076, 2.33 ± 0.12 and 2.63 ± 0.078.
